Reference: patent US20250277044A1 (published 2025)

Assays:
[1] = biological target: T1, recombinant human 4-1BB (Sino Biological Inc., catalog number 10041-H08H) (human, UniProt Q07011 24-186); assay: ELISA; FIG. 2
[2] = biological target: T1, recombinant human 4-1BB (Sino …); assay: ELISA; FIG. 6
[3] = biological target: T1, recombinant human 4-1BB (Sino …); assay: competition ELISA; blocking of 4-1BB/4-1BBL
[4] = biological target: T1, recombinant human 4-1BB (Sino …); assay: ELISA; FIG. 6; remark: listed apart in the source

B1: Urelumab (a patent sequence from WO2004010947) (antibody, V domains shown)
VH: QVQLQQWGAGLLKPSETLSLTCAVYGGSFSGYYWSWIRQSPEKGLEWIGEINHGGYVTYNPSLESRVTISVDTSKNQFSLKLSSVTAADTAVYYCARDYGPGNYDWYFDLWGRGTLVTVSS
VL: EIVLTQSPATLSLSPGERATLSCRASQSVSSYLAWYQQKPGQAPRLLIYDASNRATGIPARFSGSGSGTDFTLTISSLEPEDFAVYYCQQRSNWPPALTFGGGTKVEIK
- EC50 [1]: 0.087 nM
- EC50 [2]: 0.087 nM

B2: humanized anti-human 4-1BB monoclonal antibody BH3145b (antibody, V domains shown)
VH: QVQLVQSGAEVKKPGSSVKVSCKASGYTFTSYWINWVRQAPGQGLEWMGNIYPSDSYTNYNQKFKDRVTITADKSTSTAYMELSSLRSEDTAVYYCARLYYGSSPFDYWGQGTTVTVSS
VL: DIQMTQSPSSLSASVGDRVTITCRASQDISNYLNWYQQKPGKVPKLLIYHTSRLHSGVPSRFSGSGSGTDFTLTISSLQPEDVATYYCQQGHTLPRTFGGGTKVEIKR
- EC50 [3]: 14 nM
- EC50 [4]: 0.086 nM
